Assay results taken from PMC8391806, “Enthalpy–Entropy Compensation in the Promiscuous Interaction of an Intrinsically Disordered Protein with Homologous Protein Partners” (Biomolecules, 2021).
One block for each binder: values may come before it.

Experiments:
Details in all cases: both partners purified
[1] = target: T1, JNK1 kinase (residues 1–364 of human JNK1 (isoform α1) with a C-terminal 6xHis tag) (human, UniProt P45983 1-364); experiment: NMR 15N CEST + ITC; on-rate worked out from the off-rate of CEST (5 °C) and the dissociation constant of ITC (20 °C)
T1 construct: Human JNK1 (c-Jun N-terminal kinase 1), isoform α1, residues 1-364; source: expressed and purified as described previously [34,35]
T1 sequence (P45983 1-364): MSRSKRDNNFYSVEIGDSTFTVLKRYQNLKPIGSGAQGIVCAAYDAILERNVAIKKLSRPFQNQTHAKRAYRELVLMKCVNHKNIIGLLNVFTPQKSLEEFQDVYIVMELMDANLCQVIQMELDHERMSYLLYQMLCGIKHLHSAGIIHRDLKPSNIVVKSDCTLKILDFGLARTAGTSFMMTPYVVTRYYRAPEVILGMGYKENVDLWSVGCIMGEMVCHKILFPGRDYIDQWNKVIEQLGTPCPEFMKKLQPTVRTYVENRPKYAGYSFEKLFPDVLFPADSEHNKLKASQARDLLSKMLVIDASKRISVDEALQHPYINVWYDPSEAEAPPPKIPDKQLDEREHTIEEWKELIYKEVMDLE

[2] = target: T2, p38α kinase (residues 1–360 of human p38α) (human, UniProt Q16539 1-360); experiment: NMR 15N CEST and CPMG relaxation dispersion; 247 μM 15N MKK4 with 6% molar ratio of p38α; data acquired previously [35], analysed here with a two-site exchange model
T2 construct: source: expressed and purified as described previously [34,35]
T2 sequence (Q16539 whole entry, the tested form may be a part): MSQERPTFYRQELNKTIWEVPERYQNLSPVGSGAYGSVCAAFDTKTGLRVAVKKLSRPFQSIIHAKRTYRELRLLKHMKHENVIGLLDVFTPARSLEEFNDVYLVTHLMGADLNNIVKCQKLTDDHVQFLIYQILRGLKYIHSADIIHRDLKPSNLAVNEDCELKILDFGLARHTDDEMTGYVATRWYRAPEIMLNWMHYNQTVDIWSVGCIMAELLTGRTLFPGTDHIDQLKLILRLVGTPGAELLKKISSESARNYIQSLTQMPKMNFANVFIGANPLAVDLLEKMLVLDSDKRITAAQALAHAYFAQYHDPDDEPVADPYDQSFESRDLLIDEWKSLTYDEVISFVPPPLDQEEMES

[3] = target: T1, JNK1 kinase (residues 1–364 of human …); experiment: NMR 15N CEST; 250 μM 15N MKK4 with 10% molar ratio of JNK1; 5 °C; 50 mM HEPES pH 7.1, 150 mM NaCl, 2 mM DTT, 5% glycerol; two-site exchange model (ChemEx)
[4] = target: T2, p38α kinase (residues 1–360 of human …); experiment: NMR 15N CEST and CPMG relaxation dispersion + ITC; on-rate worked out from the off-rate of the NMR exchange analysis and the dissociation constant of ITC (ITC of ref. 35)
[5] = target: T1, JNK1 kinase (residues 1–364 of human …); experiment: ITC; MKK4 (570 μM, with thioredoxin and 6xHis tag) titrated into JNK1 (42 μM); 20 °C; 50 mM HEPES pH 8.2, 150 mM NaCl, 10% glycerol, 0.5 mM TCEP; model of n identical and independent sites

- kon [1]: 6.95e+07 M⁻¹ s⁻¹
- koff [2]: 205 s⁻¹
- population of the bound state (6% molar ratio of p38α) [2]: 6.2 ± 0.1%
- koff [3]: 90 s⁻¹
- population of the bound state (10% molar ratio of JNK1) [3]: 8.7 ± 0.1%
- kon [4]: 5.01e+07 M⁻¹ s⁻¹
B1: regulatory domain of MKK4 (residues 12–86 of human MKK4), 15N-labeled, for NMR (domain or fragment, UniProt P45985 12-86, looked up)
chain: SGGGSGSGTPGPVGSPAPGHPAVSSMQGKRKALKLNFANPPFKSTARFTLNPNPTGVQNPHIERLRTHSIESSGK
notes: Uniformly 15N-labeled for NMR; also called intrinsically disordered regulatory domain of MKK4; source: expressed and purified as described previously [34,35]

- Kd [5]: 1.3 µM
- stoichiometry N [5]: 1
B2: regulatory domain of MKK4 (residues 12–86) with N-terminal thioredoxin and 6xHis tag, unlabeled, for ITC (domain or fragment, human, UniProt P45985 12-86, looked up)
chain: B1 chain
notes: source: expressed and purified as described previously [34,35]; size-exclusion chromatography in the ITC buffer; not shown: thioredoxin, N-terminal, kept; His6, N-terminal, kept
